{"source": "patent US20030139374A1", "about": "(University of Texas, published 2003)", "molecules": {"B1": {"name": "tTF219 (G164A): tTF219 with amino acid 164 (Gly) replaced by Ala (protein)", "chain": "GSGTTNTVAAYNLTWKSTNFKTILEWEPKPVNQVYTVQISTKSGDWKSKCFYTTDTECDLTDEIVKDVKQTYLARVFSYPAGNVESTGSAGEPLYENSPEFTPYLETNLGQPTIQSFEQVGTKVNVTVEDERTLVRRNNTFLSLRDVFGKDLIYTLYYWKSSSSAKKTAKTNTNEFLIDVDKGENYCFSVQAVIPSRTVNRKSTDSPVECMGQEKGEFRE"}, "B2": {"name": "tTF219 (W158R) (protein)", "chain": "B1 chain with W159R, A165G"}, "B3": {"name": "IgG-H6-N′-cys-tTF219: one molecule of IgG linked via SMPT to one or two molecules of H6-N′-cys-tTF219 (conjugate)", "chain": "HHHHHHAMALVPRGSCGTTNTVAAYNLTWKSTNFKTILEWEPKPVNQVYTVQISTKSGDWKSKCFYTTDTECDLTDEIVKDVKQTYLARVFSYPAGNVESTGSAGEPLYENSPEFTPYLETNLGQPTIQSFEQVGTKVNVTVEDERTLVRRNNTFLSLRDVFGKDLIYTLYYWKSSSSGKKTAKTNTNEFLIDVDKGENYCFSVQAVIPSRTVNRKSTDSPVECMGQEKGEFRE", "modifications": "left off: large carriers"}, "B4": {"name": "Fab′-H6-N′-cys-tTF219: Fab′ fragment disulfide-linked to H6-N′-cys-tTF219 (conjugate)", "chain": "B3 chain", "modifications": "left off: another chain or arm of the molecule; large carriers"}, "B5": {"name": "H6-tTF219-cys-C′: tTF219 with (His)6 tag and a Cys after amino acid 219 (protein)", "chain": "HHHHHHAMALVPRGSGTTNTVAAYNLTWKSTNFKTILEWEPKPVNQVYTVQISTKSGDWKSKCFYTTDTECDLTDEIVKVKQTYLARVFSYPAGNVESTGSAGEPLYENSPEFTPYLETNLGQPTIQSFEQVGTKVNVTVEDRTLVRRNNTFLSLRDVFGKDLIYTLYYWKSSSSGKKTAKTNTNEFLIDVDKGENYCFSVQAVIPSRTVNRKSTDSPVECMGQEKGEFREC"}, "B6": {"name": "H6-tTF220-cys-C′: tTF with Ile-Cys after amino acid 219, (His)6 tag (protein)", "chain": "HHHHHHAMALVPRGSGTTNTVAAYNLTWKSTNFKTILEWEPKPVNQVYTVQISTKSGDWKSKCFYTTDTECDLTDEIVKDVKQTYLARVFSYPAGNVESTGSAGEPLYENSPEFTPYLETNLGQPTIQSFEQVGTKVNVTVEDERTLVRRNNTFLSLRDVFGKDLIYTLYYWKSSSSGKKTAKTNTNEFLIDVDKGENYCFSVQAVIPSRTVNRKSTDSPVECMGQEKGEFRE"}, "B7": {"name": "H6-tTF221-cys-C′: tTF with Ile-Phe-Cys after amino acid 219, (His)6 tag (protein)", "chain": "B6 chain"}, "B8": {"name": "H6-tTF221-cys-C′ dimer: chemically conjugated disulfide dimer of H6-tTF221-cys-C′ (protein)", "chain": "B6 chain"}, "B9": {"name": "Factor VIIa: recombinant human Factor VIIa (protein)", "chain": "ANAFLEELRPGSLERECKEEQCSFEEAREIFKDAERTKLFWISYSDGDQCASSPCQNGGSCKDQLQSYICFCLPAFEGRNCETHKDDQLICVNENGGCEQYCSDHTGTKRSCRCHEGYSLLADGVSCTPTVEYPCGKIPILEKRNASKPQGRIVGGKVCPKGECPWQVLLLVNGAQLCGGTLINTIWVVSAAHCFDKIKNWRNLIAVLGEHDLSEHDGDEQSRRVAQVIIPSTYVPGTTNHDIALLRLHQPVVLTDHVVPLCLPERTFSERTLAFVRFSLVSGWGQLLDRGATALELMVLNVPRLMTQDCLQQSRKVGDSPNITEYMFCAGYSDGSKDSCKGDSGGPHATHYRGTWYLTGIVSWGQGCATVGHFGVYTRVSQYIEWLQKLMRSEPRPGVLLRAPFP"}, "B10": {"name": "anti-VEGF antibody 2C3 (antibody, V domains shown)", "VH": "QVQLQESGPELVKPGASVKMSCKASGYTFTSYVFHWVKQKPGQGLEWIGYINPYNDVTKYNEKFKGKATLTSDKSSSTAYMELSSLTSEDSAVYYCASYYGSSYGYYAMDDWGQGTTVTVSS", "VL": "DIQLTQSPASLSVSAGEKVTMSCKSSQSLLNSGNQKNYLAWYQQKPGQPPKLLIHGASTRESGVPDRFTGSGSGTDFTLTISSVQAEDLAVYYCQNDYSYPLTFGAGTKLELKR"}}, "key": {"[1]": {"system": "Mouse bEnd.3 endothelial cells", "assay": "Phosphatidylserine induction by hydrogen peroxide", "assay_type": "cell-based", "protocol": "Mouse bEnd.3 endothelial cells were seeded at an initial density of 50,000 cells/well. Twenty-fours later cells were incubated with increasing concentrations of H2O2 (from 10 μM to 500 μM) for 1 hour at 37° C. or left untreated. At the end of the incubation, cells were washed 3 times with PBS containing 0.2% gelatin and fixed with 0.25% glutaraldehyde. Identical wells were either stained with anti-PS IgM or trypsinized and evaluated for viability by the Trypan Blue exclusion test. For the anti-PS staining, after blocking with 2% gelatin for 10 min., cells were incubated with 2 μg/ml of anti-PS antibody, followed by detection with anti-mouse IgM-HRP conjugate."}, "Mouse endothelial cells": {"system": "Mouse endothelial cells", "assay": "TNFα, cell based two stage coagulation assay", "protocol": "Mouse endothelial cells were seeded in 48 well tissue culture plates and allowed to adhere overnight. Cells were stimulated with TNFα at the following concentrations: 500 U/ml 100 U/ml; 20 U/ml; 4 U/ml; 0.8 U/ml 0.16 U/ml; and with medium only.\nEndothelial cells were also tested for coagulant activity in a cell based two stage coagulation assay. After incubation with TNFα, cells were washed and incubated with coagulation factor mix (0.5 μg/ml factor VIIa in a mix containing 2.8 μg/ml factor IX, 3.4 μg/ml factor X, 50 μM phospholipids in calcium buffer). The supernatant of wells was transferred into a 96 well ELISA plate. Substrate S2765 was added and Factor Xa generation measured."}, "[2]": {"system": "tissue factor on the surface of HUVEC cells", "assay": "FACS analysis of tissue factor expression on HUVEC", "assay_type": "cell-based, human", "conditions": "TNFα 500 U/ml, LPS 10 μg/ml, VEGF 1 nM; 6 h", "protocol": "To analyze tissue factor expression on the surface of endothelial cells, HUVEC cells were incubated with TNFα (500 U/ml), LPS (10 μg/ml) or vascular endothelial growth factor (VEGF, 1 nM) alone or in combination for 6 h at 37°. Cells were then detached and stained for surface expression of human tissue factor with a sheep-anti-human tissue factor antibody (Haemochrom, Essen, Germany) and an appropriate FITC-conjugated secondary antibody. Fluorescent cells were detected on a flow cytometer (Becton Dickinson, San Jose, Calif.)."}, "bEnd 3 cells": {"system": "bEnd 3 cells", "assay": "Cell bound coagulation assay on stimulated bEnd 3 endothelial cells (factor Xa generation)", "assay_type": "cell-based, murine"}, "A20 lymphoma cells": {"system": "A20 lymphoma cells", "assay": "In vitro coagulation assay on A20 cells with B21-2/10H10 capture antibody", "assay_type": "cell-based, mouse", "conditions": "for coagulation times versus tTF219 and Factor VIIa at the same concentrations: Factor VIIa at 1 nM or greater; for concentration at which plasma coagulated in 50 seconds: bound via B21-2/10H10 to A20 cells"}, "[3]": {"system": "HT29 (human colorectal carcinoma) xenograft", "assay": "HT29 xenograft necrosis after tTF constructs with Factor VIIa", "set-up": "species or system BALB/c nu/nu mice", "conditions": "mouse, in vivo, iv"}, "[4]": {"system": "factor X to Xa conversion", "assay": "Factor Xa production assay on A20 cells", "assay_type": "cell-based", "conditions": "Factors II, VII and IX present"}, "VEGF:Flk-1 complex": {"molecular_target": "T1, VEGF:Flk-1 complex (human; mouse, UniProt P15692 27-191; P35918 20-762, biotinylated)", "T1 construct": "Formed overnight at 4 C at a molar ratio of sFlk-1 to VEGF of 2.5:1; also called VEGF:receptor complex; VEGF:sFlk-1", "T1 sequence (P15692 other isoform, or with tags, fused parts or gaps limits assumed, chain 1 of 2)": "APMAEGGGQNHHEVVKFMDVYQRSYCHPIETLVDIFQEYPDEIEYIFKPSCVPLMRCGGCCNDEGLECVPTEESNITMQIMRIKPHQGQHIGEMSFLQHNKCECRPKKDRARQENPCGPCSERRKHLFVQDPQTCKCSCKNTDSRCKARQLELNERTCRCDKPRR", "T1 sequence (P35918 20-762 limits assumed, chain 2 of 2)": "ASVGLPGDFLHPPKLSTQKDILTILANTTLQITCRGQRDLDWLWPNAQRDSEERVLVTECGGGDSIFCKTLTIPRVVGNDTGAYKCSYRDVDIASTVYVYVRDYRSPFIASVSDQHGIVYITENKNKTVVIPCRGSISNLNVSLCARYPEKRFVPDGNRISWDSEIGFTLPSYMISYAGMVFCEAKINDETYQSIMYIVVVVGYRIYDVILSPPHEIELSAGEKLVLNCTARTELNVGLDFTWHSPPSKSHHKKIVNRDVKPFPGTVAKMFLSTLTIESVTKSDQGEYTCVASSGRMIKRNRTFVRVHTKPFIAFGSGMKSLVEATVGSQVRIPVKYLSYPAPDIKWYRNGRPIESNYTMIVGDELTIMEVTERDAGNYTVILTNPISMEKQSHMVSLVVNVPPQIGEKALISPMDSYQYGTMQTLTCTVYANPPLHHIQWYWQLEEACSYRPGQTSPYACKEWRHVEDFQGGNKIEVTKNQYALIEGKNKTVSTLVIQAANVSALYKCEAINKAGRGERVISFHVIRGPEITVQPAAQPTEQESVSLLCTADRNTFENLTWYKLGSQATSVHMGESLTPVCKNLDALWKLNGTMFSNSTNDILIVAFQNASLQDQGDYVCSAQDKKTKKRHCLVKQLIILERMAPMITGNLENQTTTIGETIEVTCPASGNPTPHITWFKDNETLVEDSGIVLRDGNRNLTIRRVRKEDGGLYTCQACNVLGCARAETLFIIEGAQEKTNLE", "assay": "capture ELISA, antibody-coated wells, soluble VEGF:sFlk-1-biotin titrated"}, "[5]": {"molecular_target": "T2, recombinant human VEGF (VEGF165) (human, UniProt P15692-4 27-191, biotinylated in the capture and competition ELISAs)", "T2 construct": "also called free VEGF; VEGF-biotin", "T2 sequence (P15692 other isoform, or with tags, fused parts or gaps limits assumed)": "as the sequence (P15692 other isoform, or with tags, fused parts or gaps limits assumed, chain 1 of 2) above", "assay": "competition ELISA, 1 nM VEGF on VEGFR1 (Flt-1/Fc) wells, 1000 fold molar excess of 2C3"}, "[6]": {"molecular_target": "T2, recombinant human VEGF (VEGF165)", "assay": "competition ELISA, 1 nM VEGF on VEGFR1 (Flt-1/Fc) wells, 100 fold molar excess of 2C3"}, "[7]": {"molecular_target": "T2, recombinant human VEGF (VEGF165)", "assay": "capture ELISA, antibody-coated wells, biotinylated VEGF titrated"}}, "note": "Changes are numbered by the printed parent chain. Numbers in names are those of the source."}
{"molecule": "OO", "note": "[H2O2]", "values": [{"measurement": "cells with PS detected at the cell surface", "setting": "[1]; concentrations as low as 20 μM", "result": "about 50%"}, {"measurement": "cell viability", "setting": "[1]; low levels of H2O2 (lower than 100 μM), identical to untreated", "result": 95, "unit": "%"}]}
{"molecule": "TNFα", "values": [{"measurement": "fold lower dose for coagulant effect than for VCAM-1 upregulation", "setting": "Mouse endothelial cells", "result": 125, "unit": "fold"}, {"measurement": "TNFα at which an increase in comparison to the negative control could be detected", "setting": "Mouse endothelial cells; coagulation assay", "result": 0.16, "unit": "U/ml"}, {"measurement": "tissue factor expression on the surface of endothelial cells", "setting": "[2]", "result": "upregulated"}, {"measurement": "Factor Xa generation", "setting": "bEnd 3 cells; stimulation with TNFα (500 U/ml), then incubation with labelled agent (label TNFα = medium only), 0.5 μg/ml factor VIIa", "result": 0.35, "unit": "nkatS2222"}, {"measurement": "Factor Xa generation due to Factor VIIa production", "setting": "bEnd 3 cells; stimulation with TNFα (label TNFα = medium only), 2 μg/ml factor VII and 0.01 μg/ml factor VIIa, factor VII-only values subtracted", "result": 1.23, "unit": "nkatS2222"}]}
{"molecule": "VEGF", "values": [{"measurement": "tissue factor expression on the surface of endothelial cells", "setting": "[2]", "result": "upregulated"}]}
{"molecule": "B1", "values": [{"measurement": "coagulation times versus tTF219 and Factor VIIa at the same concentrations", "setting": "A20 lymphoma cells", "result": "only marginally slower coagulation times"}, {"measurement": "necrosis, average area as percentage of total tumor area", "setting": "[3]", "result": "some necrosis"}]}
{"molecule": "B2", "values": [{"measurement": "coagulation times versus tTF219 and Factor VIIa at the same concentrations", "setting": "A20 lymphoma cells", "result": "only marginally slower coagulation times"}]}
{"molecule": "B3", "values": [{"measurement": "fold less active at inducing coagulation of plasma than tTF219 / unconjugated or monomeric form", "setting": "A20 lymphoma cells", "result": 5, "unit": "fold"}, {"measurement": "concentration at which plasma coagulated in 50 seconds", "setting": "A20 lymphoma cells", "result": 5, "unit": "nM"}, {"measurement": "activity at inducing Xa formation relative to H6-N′-cys-tTF219 (fold less active)", "setting": "[4]", "result": 2, "unit": "fold"}]}
{"molecule": "B4", "values": [{"measurement": "activity at inducing Xa formation relative to H6-N′-cys-tTF219 (fold less active)", "setting": "[4]", "result": "as active as"}]}
{"molecule": "B5", "values": [{"measurement": "concentration at which plasma coagulated in 50 seconds", "setting": "A20 lymphoma cells", "result": 3, "unit": "nM"}]}
{"molecule": "B6", "values": [{"measurement": "concentration at which plasma coagulated in 50 seconds", "setting": "A20 lymphoma cells", "result": 0.5, "unit": "nM"}]}
{"molecule": "B7", "values": [{"measurement": "concentration at which plasma coagulated in 50 seconds", "setting": "A20 lymphoma cells", "result": 0.5, "unit": "nM"}, {"measurement": "concentration at which plasma coagulated in 50 seconds", "setting": "A20 lymphoma cells; listed as H6-tTF221-cys-C′ monomer", "result": 1, "unit": "nM"}]}
{"molecule": "B8", "values": [{"measurement": "fold less active at inducing coagulation of plasma than tTF219 / unconjugated or monomeric form", "setting": "A20 lymphoma cells", "result": 4, "unit": "fold"}]}
{"molecule": "B9", "values": [{"measurement": "necrosis, average area as percentage of total tumor area", "setting": "[3]", "result": "some necrosis"}]}
{"molecule": "B10", "values": [{"measurement": "EC50", "setting": "VEGF:Flk-1 complex", "result": 150, "unit": "nM"}, {"measurement": "percent of VEGF bound to VEGFR1-coated wells relative to no 2C3", "setting": "[5]", "result": 105, "unit": "%"}, {"measurement": "percent of VEGF bound to VEGFR1-coated wells relative to no 2C3", "setting": "[6]", "result": 92, "unit": "%"}, {"measurement": "EC50", "setting": "[7]", "result": 1, "unit": "nM"}]}
